From doi:10.1101/836718, “A unique conformational escape reaction of HIV-1 against an allosteric integrase inhibitor” (bioRxiv, 2019)

B1: recombinant His-tagged HIV-1 integrase, wild type (IN^WT) (enzyme)
chain: FLDGIDKAQEEHEKYHSNWRAMASDFNLPPVVAKEIVASCDKCQLKGEAMHGQVDCSPGIWQLDCTHLEGKVILVAVHVASGYIEAEVIPAETGQETAYFLLKLAGRWPVKTVHTDNGSNFTSTTVKAACWWAGIKQEFGIPYNPQSQGVIESMNKELKKIIGQVRDQAEHLKTAVQMAVFIHNFKRKGGIGGYSAGERIVDIIATDIQTKELQKQITKIQNFRVYYRDSRDPVWKGPAKLLWKGEGAVVIQDNSDIKVVPRRKAKIIRDYGKQMAGDDCVASRQDED
notes: pET30a IN-6xHis; also called INHis; IN-6xHis; source: E. coli Rosetta (DE3) pLysS, purified (His-TALON column); not shown: His6, C-terminal, kept
B2: Flag-tagged HIV-1 integrase, wild type (F-IN^WT) (enzyme)
chain: FLDGIDKAQEEHEKYHSNWRAMASDFNLPPVVAKEIVASCDKCQLKGEAMHGQVDCSPGIWQLDCTHLEGKVILVAVHVASGYIEAEVIPAETGQETAYFLLKLAGRWPVKTVHTDNGSNFTSTTVKAACWWAGIKQEFGIPYNPQSQGVIESMNKELKKIIGQVRDQAEHLKTAVQMAVFIHNFKRKGGIGGYSAGERIVDIIATDIQTKELQKQITKIQNFRVYYRDSRDPVWKGPAKLLWKGEGAVVIQDNSDIKVVPRRKAKIIRDYGKQMAGDDCVASRQDED
notes: pET30a Flag-IN; also called Flag-IN; source: E. coli Rosetta (DE3) pLysS, purified (by previous reports, Kessl et al., 2012); not shown: FLAG, N-terminal, kept

What was measured:
[1] = target: the molecule itself; assay: SEC; HPLC, TSKgel-SWXLG3000 column; INHis at 50 µM; running buffer 20 mM HEPES pH 7.4, 750 mM NaCl, 3.75 mM CHAPS; 4°C as possible; self-association (tetramer, dimer, monomer)
[2] = target: T1, His-tagged lens epithelium-derived growth factor p75 (LEDGF/p75) (human (sequence derived from 293T cells), UniProt O75475 1-530); assay: pull-down; F-IN (2 µM) and LEDGF/p75His (2 µM) 30 min at RT in 50 mM HEPES pH 7.0, 300 mM NaCl, 2 mM MgCl2, 2 mM BME, 5% glycerol, 0.2% NP-40, 20 mM imidazole; His 60 Ni resin; wash with 1 M NaCl; Coomassie staining; settings: both partners purified
T1 construct: also called LEDGFHis; LEDGF/p75His; source: E. coli Rosetta (DE3) pLysS, purified (His-TALON column); not shown: His6, N-terminal, kept
T1 sequence (O75475 whole entry): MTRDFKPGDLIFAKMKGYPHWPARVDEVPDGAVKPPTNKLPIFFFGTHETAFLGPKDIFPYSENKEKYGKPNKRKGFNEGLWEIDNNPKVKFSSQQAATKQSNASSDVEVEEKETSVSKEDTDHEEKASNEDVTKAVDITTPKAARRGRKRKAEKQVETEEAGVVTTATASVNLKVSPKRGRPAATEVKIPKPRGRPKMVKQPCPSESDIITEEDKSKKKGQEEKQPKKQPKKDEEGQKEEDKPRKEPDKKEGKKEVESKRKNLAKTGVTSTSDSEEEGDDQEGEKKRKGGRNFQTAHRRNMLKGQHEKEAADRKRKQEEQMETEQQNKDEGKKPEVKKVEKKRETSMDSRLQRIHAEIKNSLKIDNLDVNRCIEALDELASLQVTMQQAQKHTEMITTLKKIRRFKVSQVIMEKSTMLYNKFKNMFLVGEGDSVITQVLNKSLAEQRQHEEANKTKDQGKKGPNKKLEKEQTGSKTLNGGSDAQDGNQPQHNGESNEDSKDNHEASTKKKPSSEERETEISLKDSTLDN

Binder | stoichiometry N [1] | binding result [2]
B1 | 2 | 
B2 |  | binds
